# Measurements as given in article PMC8291550.
# Biological target: rat skeletal muscle sodium channel rNaV1.4 (UniProt P15390)
# Test: washing-out time-course analysis (electrophysiology)
# Conditions: read off a plot
# Sequence of UniProt P15390 (P15390 whole entry): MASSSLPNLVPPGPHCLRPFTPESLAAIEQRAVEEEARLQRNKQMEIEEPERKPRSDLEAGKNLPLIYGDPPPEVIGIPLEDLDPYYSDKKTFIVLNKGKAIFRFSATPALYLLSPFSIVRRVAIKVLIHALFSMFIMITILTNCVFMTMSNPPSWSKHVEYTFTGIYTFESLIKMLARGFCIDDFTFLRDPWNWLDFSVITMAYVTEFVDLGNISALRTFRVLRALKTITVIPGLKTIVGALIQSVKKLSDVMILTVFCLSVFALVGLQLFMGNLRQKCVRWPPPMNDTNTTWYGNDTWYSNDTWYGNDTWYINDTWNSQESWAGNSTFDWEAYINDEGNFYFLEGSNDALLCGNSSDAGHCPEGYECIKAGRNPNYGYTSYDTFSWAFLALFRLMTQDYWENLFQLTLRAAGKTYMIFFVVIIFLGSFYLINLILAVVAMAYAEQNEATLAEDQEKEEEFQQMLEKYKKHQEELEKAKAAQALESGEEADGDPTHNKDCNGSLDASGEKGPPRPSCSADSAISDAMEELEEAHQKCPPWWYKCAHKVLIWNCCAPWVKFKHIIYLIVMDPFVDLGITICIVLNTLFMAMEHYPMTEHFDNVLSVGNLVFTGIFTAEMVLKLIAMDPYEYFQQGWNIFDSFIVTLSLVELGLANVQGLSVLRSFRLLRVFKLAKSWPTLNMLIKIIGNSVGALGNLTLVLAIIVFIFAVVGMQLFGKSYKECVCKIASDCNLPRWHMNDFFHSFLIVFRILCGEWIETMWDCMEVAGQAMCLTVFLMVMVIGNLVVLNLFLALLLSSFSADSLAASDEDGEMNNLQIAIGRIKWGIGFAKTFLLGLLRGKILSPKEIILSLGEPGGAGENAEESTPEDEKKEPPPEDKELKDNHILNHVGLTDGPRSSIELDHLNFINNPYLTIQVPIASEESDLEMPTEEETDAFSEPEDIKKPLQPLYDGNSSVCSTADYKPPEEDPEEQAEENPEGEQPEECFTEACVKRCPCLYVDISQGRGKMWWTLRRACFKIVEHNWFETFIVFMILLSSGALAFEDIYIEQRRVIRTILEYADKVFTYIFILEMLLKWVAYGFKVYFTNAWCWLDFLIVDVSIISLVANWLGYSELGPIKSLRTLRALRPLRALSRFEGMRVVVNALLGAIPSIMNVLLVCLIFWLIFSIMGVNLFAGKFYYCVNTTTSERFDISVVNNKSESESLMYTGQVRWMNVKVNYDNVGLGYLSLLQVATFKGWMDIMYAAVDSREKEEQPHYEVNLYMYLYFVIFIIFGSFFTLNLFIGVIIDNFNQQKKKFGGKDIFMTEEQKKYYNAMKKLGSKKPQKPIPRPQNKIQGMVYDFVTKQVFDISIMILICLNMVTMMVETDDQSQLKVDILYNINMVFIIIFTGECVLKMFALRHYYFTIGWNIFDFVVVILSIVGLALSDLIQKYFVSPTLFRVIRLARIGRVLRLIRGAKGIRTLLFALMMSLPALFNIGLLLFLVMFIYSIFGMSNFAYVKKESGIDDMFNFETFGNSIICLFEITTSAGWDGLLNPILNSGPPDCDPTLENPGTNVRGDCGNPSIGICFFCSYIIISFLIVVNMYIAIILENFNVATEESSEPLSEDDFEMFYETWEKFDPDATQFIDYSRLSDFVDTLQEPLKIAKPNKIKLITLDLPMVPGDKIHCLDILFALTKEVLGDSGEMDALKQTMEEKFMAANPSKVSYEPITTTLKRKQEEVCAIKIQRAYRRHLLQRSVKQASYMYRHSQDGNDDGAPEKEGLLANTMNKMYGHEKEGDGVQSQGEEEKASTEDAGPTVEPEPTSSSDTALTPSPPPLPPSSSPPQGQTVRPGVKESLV
row,Substance,other: τoff
1,BmK-M9 D3G,1900 s
2,BmK-M9 D28G,1800 s
3,BmK-M9 D53G,1700 s
4,BmK-M9 E10G,1700 s
5,BmK-M9 E20G,1600 s
6,BmK-M9 E32G,1800 s
7,BmK-M9 H15G,1500 s
8,BmK-M9 H64G,1800 s
9,BmK-M9 K8G,1700 s
10,BmK-M9 K24G,1800 s
11,BmK-M9 K50G,1600 s
12,BmK-M9 K62G,8.5 s
13,BmK-M9 R2G,1300 s
14,BmK-M9 R41G,1700 s
15,BmK-M9 R54G,1800 s
16,BmK-M9 R58G,2000 s
17,BmK-M9 Y42G,17 s
